# Laboratory results reported in patent publication US20130177919.
# T1: recombinant GST-Flag-CERT(1-138) wild type fusion protein from E. coli
# T1 chain: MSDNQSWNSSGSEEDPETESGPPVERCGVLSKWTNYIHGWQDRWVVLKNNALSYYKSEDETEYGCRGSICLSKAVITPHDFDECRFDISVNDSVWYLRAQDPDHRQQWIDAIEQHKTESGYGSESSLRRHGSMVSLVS
# T2: recombinant GST-Flag-CERT-S132A(1-138) fusion protein from E. coli
# T2 chain: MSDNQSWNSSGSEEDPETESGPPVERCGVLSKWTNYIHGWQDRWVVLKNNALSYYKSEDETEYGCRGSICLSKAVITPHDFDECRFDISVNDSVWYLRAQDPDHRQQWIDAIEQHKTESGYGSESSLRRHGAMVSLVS
# Key:
# [1] = target: T1, recombinant GST-Flag-CERT(1-138) wild …
# [2] = target: T2, recombinant GST-Flag-CERT-S132A(1-138) …
protein,measurement,setting,value
purified PKD1 (protein) MSAPPVLRPPSPLLPVAAAAAAAAAALVPGSGPGPAPFLAPVAAPVGGISFHLQIGLSREPVLLLQDSSGDYSLAHVREMACSIVDQKFPECGFYGMYDKILLFRHDPTSENILQLVKAASDIQEGDLIEVVLSASATFEDFQIRPHALFVHSYRAPAFCDHCGEMLWGLVRQGLKCEGCGLNYHKRCAFKIPNNCSGVRRRRLSNVSLTGVSTIRTSSAELSTSAPDEPLLQKSPSESFIGREKRSNSQSYIGRPIHLDKILMSKVKVPHTFVIHSYTRPTVCQYCKKLLKGLFRQGLQCKDCRFNCHKRCAPKVPNNCLGEVTINGDLLSPGAESDVVMEEGSDDNDSERNSGLMDDMEEAMVQDAEMAMAECQNDSGEMQDPDPDHEDANRTISPSTSNNIPLMRVVQSVKHTKRKSSTVMKEGWMVHYTSKDTLRKRHYWRLDSKCITLFQNDTGSRYYKEIPLSEILSLEPVKTSALIPNGANPHCFEITTANVVYYVGENVVNPSSPSPNNSVLTSGVGADVARMWEIAIQHALMPVIPKGSSVGTGTNLHRDISVSISVSNCQIQENVDISTVYQIFPDEVLGSGQFGIVYGGKHRKTGRDVAIKIIDKLRFPTKQESQLRNEVAILQNLHHPGVVNLECMFETPERVFVVMEKLHGDMLEMILSSEKGRLPEHITKFLITQILVALRHLHFKNIVHCDLKPENVLLASADPFPQVKLCDFGFARIIGEKSFRRSVVGTPAYLAPEVLRNKGYNRSLDMWSVGVIIYVSLSGTFPFNEDEDIHDQIQNAAFMYPPNPWKEISHEAIDLINNLLQVKMRKRYSVDKTLSHPWLQDYQTWLDLRELECKIGERYITHESDDLRWEKYAGEQGLQYPTHLINPSASHSDTPETEETEMKALGERVSIL,"incorporation of radioactivity ([γ-32P]-ATP, in vitro kinase assay)",[1],incorporation of radioactivity is detected
same,"incorporation of radioactivity ([γ-32P]-ATP, in vitro kinase assay)",[2],This is significantly impaired in the case of the CERT-S132A fusion protein
